The values that follow come from article PMC4826287 (Journal of molecular biology, 2015).

The labels stand for the following.
B6: SPOP^MATH (MATH domain of Speckle-type POZ protein, residues 28-166) (domain or fragment, UniProt O43791 28-166, looked up)
chain: KVVKFSYMWTINNFSFCREEMGEVIKSSTFSSGANDKLKWCLRVNPKGLDEESKDYLSLYLLLVSCPKSEVRAKFKFSILNAKGEETKAMESQRAYRFVQGKDWGFKKFIRRDFLLDEANGLLPDDKLTLFCEVSVVQD

Test [1] addresses B6. In words: fluorescence polarisation. For orientation: In fluorescence polarisation assays a small probe gives low polarisation when free and higher when bound to something large.
Test [2] concerns the target T1, SPOP^MATH-BTB (SPOP construct encompassing residues 28-337) (UniProt O43791 28-337). The experiment in a line: fluorescence polarisation.
Test [3] addresses B6. In words: fluorescence polarisation. This is another data set of the same source.
Test [4] deals with B6. In words: BLI. On the technique in general: BLI is a label-free optical method that tracks binding on a fibre tip over time.
Test [5] has as its target T1, SPOP^MATH-BTB (SPOP construct …). In words: BLI.
Test [6] deals with SPOP^MATH-BTB-BACK (SPOP construct encompassing residues 28-359) (UniProt O43791 28-359). The experiment in a line: BLI.
The target in test [7] is SPOP^MATH (Homo sapiens, UniProt O43791). In words: Sedimentation velocity AUC, stoichiometry of Gli3^1-90/SPOP^MATH complex. The conditions noted are these: SV AUC, excess SPOP^MATH (Gli3^1-90 156 μM / SPOP^MATH 525 μM), pH 6.0, 20 °C, size-and-shape distribution analysis. Type of test: binding.
Test [8] addresses T2, Gli3^1-90 (90-residue N-terminal Gli3 fragment), His tag cleaved (UniProt P10071 1-90).
T2 sequence (looked up): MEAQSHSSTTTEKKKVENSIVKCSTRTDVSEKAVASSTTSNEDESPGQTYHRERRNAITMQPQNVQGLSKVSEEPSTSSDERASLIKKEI
In words: AUC.

A word on the Kd: it is the free concentration of one partner at which half of the binding sites on the other are occupied at equilibrium, for simple one-to-one binding. A word on the stoichiometry N: it is the number of molecules, sites or subunits per partner or assembly.

B1: F-pPuc (N-terminally fluorescently labeled Puc peptide) (peptide)
peptide: ENLACDEVTSTTSSST
modifications: not fully specified; fluorescein on the N-terminus; C-terminal amide
For the molecule B1, the Kd in test [1] and in test [2] was around 6 µM throughout.

B2: SBM2 (Gli3 peptide, SPOP-binding motif 2) (peptide)
peptide: Ac-EKAVASSTTSNEDES-NH2
The molecule B2 yielded a Kd in test [3] of 80 µM.

B3: His6-Gli3^1-90 (N-terminal His6 tag left on) (domain or fragment, UniProt P10071 1-90, looked up)
chain: MEAQSHSSTTTEKKKVENSIVKCSTRTDVSEKAVASSTTSNEDESPGQTYHRERRNAITMQPQNVQGLSKVSEEPSTSSDERASLIKKEI
Consider B3, for which the Kd in test [4] is 21 µM; in test [5], 28 µM; in test [6] it was 1500 nM.

B4: Gli3^1-90: 90-residue N-terminal Gli3 fragment, recombinant, intrinsically disordered (protein)
chain: MEAQSHSSTTTEKKKVENSIVKCSTRTDVSEKAVASSTTSNEDESPGQTYHRERRNAITMQPQNVQGLSKVSEEPSTSSDERASLIKKEI
modifications: left off: His6, N-terminal, cleaved
For the molecule B4, the “number of MATH domain molecules bound to 1 Gli3^1-90 molecule” value in test [7] was “up to 3”.

B5: SBM3 (Gli3 peptide, SPOP-binding motif 3) (peptide)
peptide: Ac-KVSEEPSTSSDERA-NH2
Molecule B5 registered a Kd in test [3] of 560 µM.

In the case of B6, in test [8], the “stoichiometry N” value is at most 3 SPOP^MATH per Gli3^1-90.

B7: SBM1 (Gli3 peptide, SPOP-binding motif 1) (peptide)
peptide: Ac-MEAQSHSSTTTEKK-NH2
B7: the Kd in test [3] was around 4100 µM.

B8: pPuc (peptide derived from the Drosophila melanogaster protein Puckered, residues 91-106) (peptide)
peptide: Ac-ENLACDEVTSTTSSST-NH2
Take B8: the Kd in test [3] came out at 7.7 µM.
